T1: human GDF15 (hGDF15), mature, wild-type (human, UniProt Q99988 197-308)
T1 construct: Bought recombinant protein: R&D Systems 957-GD-025/CF in most assays, 9279-GD in the crystal and the GDF15/GFRAL/RET assay; It was biotinylated in the GFRAL assay; also called hGDF15 (WT); rhGDF15
T1 sequence: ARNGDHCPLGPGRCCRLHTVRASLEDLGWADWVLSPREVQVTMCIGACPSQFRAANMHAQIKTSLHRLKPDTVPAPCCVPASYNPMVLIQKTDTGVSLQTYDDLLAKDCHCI

T2: mutant hGDF15 R13A, R16A (human, UniProt Q99988 197-308)
T2 construct: Expressed in ExpiCHO-S cells and used as culture supernatant in the ELISA
T2 chain: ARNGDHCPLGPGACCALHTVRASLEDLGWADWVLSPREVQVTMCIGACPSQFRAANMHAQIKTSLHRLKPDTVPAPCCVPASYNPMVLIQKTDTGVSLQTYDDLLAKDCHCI

T3: mutant hGDF15 H6A (human, UniProt Q99988 197-308)
T3 construct: Expressed in ExpiCHO-S cells and used as culture supernatant in the ELISA
T3 chain: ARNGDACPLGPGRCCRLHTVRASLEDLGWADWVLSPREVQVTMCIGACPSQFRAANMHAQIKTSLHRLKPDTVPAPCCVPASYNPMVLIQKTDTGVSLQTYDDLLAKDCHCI

T4: mutant hGDF15 R13A (human, UniProt Q99988 197-308)
T4 construct: Expressed in ExpiCHO-S cells and used as culture supernatant in the ELISA
T4 chain: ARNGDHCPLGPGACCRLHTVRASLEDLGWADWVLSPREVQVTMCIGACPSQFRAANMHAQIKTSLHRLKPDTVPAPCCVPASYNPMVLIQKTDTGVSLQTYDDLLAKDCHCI

T5: mutant hGDF15 4A (human, UniProt Q99988 197-308)
T5 construct: Expressed in ExpiCHO-S cells and used as culture supernatant
T5 chain: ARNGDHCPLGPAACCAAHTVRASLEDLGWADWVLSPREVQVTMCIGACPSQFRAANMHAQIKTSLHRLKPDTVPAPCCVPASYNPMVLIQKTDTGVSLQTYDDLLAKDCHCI

T6: mutant hGDF15 8A (human, UniProt Q99988 197-308)
T6 construct: Expressed in ExpiCHO-S cells and used as culture supernatant
T6 chain: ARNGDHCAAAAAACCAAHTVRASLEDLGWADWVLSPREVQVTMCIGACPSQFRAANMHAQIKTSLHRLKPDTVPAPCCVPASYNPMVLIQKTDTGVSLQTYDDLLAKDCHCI

T7: mutant hGDF15 6A (human, UniProt Q99988 197-308)
T7 construct: Expressed in ExpiCHO-S cells and used as culture supernatant
T7 chain: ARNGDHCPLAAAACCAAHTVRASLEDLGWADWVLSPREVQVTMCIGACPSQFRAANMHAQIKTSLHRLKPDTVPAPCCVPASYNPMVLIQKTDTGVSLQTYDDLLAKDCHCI

T8: mutant hGDF15 T72A (human, UniProt Q99988 197-308)
T8 construct: Expressed in ExpiCHO-S cells and used as culture supernatant in the ELISA
T8 chain: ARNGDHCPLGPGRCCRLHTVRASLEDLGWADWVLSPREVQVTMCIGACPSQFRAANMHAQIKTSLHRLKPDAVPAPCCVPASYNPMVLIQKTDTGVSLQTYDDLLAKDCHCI

T9: mutant hGDF15 3A (human, UniProt Q99988 197-308)
T9 construct: Expressed in ExpiCHO-S cells and used as culture supernatant
T9 chain: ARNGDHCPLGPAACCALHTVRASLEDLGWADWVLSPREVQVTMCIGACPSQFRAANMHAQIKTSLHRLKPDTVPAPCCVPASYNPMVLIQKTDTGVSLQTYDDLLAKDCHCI

T10: mutant hGDF15 R16A (human, UniProt Q99988 197-308)
T10 construct: Expressed in ExpiCHO-S cells and used as culture supernatant in the ELISA
T10 chain: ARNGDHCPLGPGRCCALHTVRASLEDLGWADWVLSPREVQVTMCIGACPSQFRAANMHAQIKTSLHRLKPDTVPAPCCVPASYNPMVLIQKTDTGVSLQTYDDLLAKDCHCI


Experiments:
[1] = target: T1, human GDF15 (hGDF15), mature, wild-type; assay: competition ELISA: GFRAL immobilised, biotinylated GDF15 plus serially diluted antibody; inhibition of GDF15-GFRAL complex formation (negative control)
[2] = target: T2, mutant hGDF15 R13A, R16A; assay: sandwich ELISA: antibody immobilised, WT or mutant hGDF15, goat polyclonal detection; N=3, mean ± SD
[3] = target: T3, mutant hGDF15 H6A; assay: as above
[4] = target: T4, mutant hGDF15 R13A; assay: as above
[5] = target: T5, mutant hGDF15 4A; assay: as above
[6] = target: T6, mutant hGDF15 8A; assay: as above
[7] = target: T7, mutant hGDF15 6A; assay: as above
[8] = target: T8, mutant hGDF15 T72A; assay: as above
[9] = target: T9, mutant hGDF15 3A; assay: as above
[10] = target: T10, mutant hGDF15 R16A; assay: as above
[11] = target: T1, human GDF15 (hGDF15), mature, wild-type; assay: sandwich ELISA: antibody immobilised, WT or mutant hGDF15, goat polyclonal detection; N=3, mean ± SD (reference)
[12] = target: T1, human GDF15 (hGDF15), mature, wild-type; assay: competition ELISA: GFRAL immobilised, biotinylated GDF15 plus serially diluted antibody; inhibition of GDF15-GFRAL complex formation
Excerpt: First, the effect on GDF15 and GFRAL complex formation was examined (FIG. 12). GFRAL (R&D systems, 9697-GR) was immobilized on a plate, and GDF15 (R&D systems, 957-GD/CF) biotinylated with EZ-Link Micro NHS-PEG4-Bitinylation Kit (Thermo Fisher Scientific, 21955) and a serially diluted solution of an anti-GDF15 monoclonal antibody (Table 26) were reacted with the plate. Human IgG1, kappa-Isotype Control (Abcam) was used as a negative control antibody. GDF15 bound to GFRAL was detected using Pierce High Sensitivity Streptavidin-HRP (Thermo Fisher Scientific, 21130). TMB 1-Component Microwell Peroxidase Substrate, SureBlue (SeraCare Life Sciences) was used for color development, and the reaction was stopped by adding a stop solution (Wako). Absorbance was measured at 450 nm (OD450) using Emax (Molecular Devices). The % of control value was calculated according to Equation-1 from the OD450 value when each antibody was added, with the OD450 value when no antibody was added as a control. The IC50 value was obtained by calculating the inhibition rate from the % of control value thus obtained according to Equation-2 and using an Excel macro for IC50 calculation.

[13] = target: T1, human GDF15 (hGDF15), mature, wild-type; assay: competition (sandwich) ELISA: clone immobilised, hGDF15 captured; competitor: biotinylated HuMAB2
Experimental: HuMAB2 and the anti-GDF15 monoclonal antibodies shown in Table 5 (2 μg/mL) were added to 96-well plates at 100 μL/well to be immobilized on the plates, and reacted with 100 μL/well of hGDF15 (R&D Systems, 957-GD-025/CF) serially diluted from a concentration of 1 ng/ml. HuMAB2 biotinylated using EZ-Link Micro NHS-PEG4-Bitinylation Kit (Thermo Fisher Scientific, 21955) was used as the detection antibody (1 μg/mL as 100 μL/well). Whether or not sandwich ELISA was established was determined using Streptavidin-HRP conjugate in Human GDF15 ELISA Kit (R&D Systems, DY957). The detection antibody in Human GDF15 ELISA Kit (R&D Systems, DY957) (Table 5), which can establish sandwich ELISA with any monoclonal antibody, was used as a positive control antibody (PC) for sandwich ELISA.
Then, other antibodies obtained this time were tested to see whether each of these antibodies competes with HuMAB2 by the same method as described above.

Molecule | IC50 [12] | relative binding (amount bound to 500 pg/mL hGDF15 = 100) [2] | relative binding (amount bound to 500 pg/mL hGDF15 = 100) [3] | relative binding (amount bound to 500 pg/mL hGDF15 = 100) [4] | relative binding (amount bound to 500 pg/mL hGDF15 = 100) [5] | relative binding (amount bound to 500 pg/mL hGDF15 = 100) [6] | relative binding (amount bound to 500 pg/mL hGDF15 = 100) [7] | relative binding (amount bound to 500 pg/mL hGDF15 = 100) [8] | relative binding (amount bound to 500 pg/mL hGDF15 = 100) [9] | relative binding (amount bound to 500 pg/mL hGDF15 = 100) [10] | Inhibition % [13] | also measured
Human IgG1 Isotype control (antibody) |  |  |  |  |  |  |  |  |  |  |  | IC50 [1]: > 500 nM
Hu01G06-127 (antibody, V domains shown) VH: QVQLVQSGAEVKKPGASVKVSCKASGYTFTDYNMDWVRQAPGQSLEWMGQINPNNGLIFFNQKFQGRVTLTTDTSTSTAYMELRSLRSDDTAVYYCAREAITTVGAMDYWGQGTLVTVSS VL: DIQMTQSPSSLSASVGDRVTITCRTSENLHNYLAWYQQKPGKSPKLLIYDAKTLADGVPSRFSGSGSGTDYTLTISSLQPEDFATYYCQHFWSDPYTFGQGTKLEIKR | 0.05 nM | 87.6 relative value (WT hGDF15 = 100) | 90.5 relative value (WT hGDF15 = 100) | 91.4 relative value (WT hGDF15 = 100) | 83.5 relative value (WT hGDF15 = 100) | 57.1 relative value (WT hGDF15 = 100) | 61.6 relative value (WT hGDF15 = 100) | 108 relative value (WT hGDF15 = 100) | 96.2 relative value (WT hGDF15 = 100) | 102 relative value (WT hGDF15 = 100) |  | 
MAB1 (antibody, V domains shown, Mouse monoclonal antibody from hybridoma; also called clone MAB1) VH: EVQLQQSGPELEKPGASVKISCKASGYSFTGYNMNWVKQSNGKSLEWIGNIDPYYGGTSYNQKFKGKATLTVDKSSSTAYMQLKSLTSEDSAVYYCARPGRYDGAWFAYWGQGTLVTVSA VL: QIVLSQSPAILSASPGEKVTMTCRASSNVNYMHWYQQKPGSSPKPWIYATSNLASGVPARFSGSGSGTSYSLTISRVEAEDAATYYCQQWSDNPLTFGAGTKLELK |  |  |  |  |  |  |  |  |  |  | 82% | 
MAB13 (antibody, V domains shown, Mouse monoclonal antibody from hybridoma; also called clone MAB13) VH: EIQLQQTGPELVKPGASVKISCKASGYSFTDYIMLWVKQRHGKSLEWIGNIHPYYGTTSYNLKFKGKATLTVDKSSSTAYMQLNSLTSEDSAVYYCARGIGGSPFAYWGQGTLVTVSA VL: DVLMTQTPLSLPVSLGDQASISCRSSQSIVHSNGNTYLEWYLQKPGQSPKLLIYKVSNRFSGVPDRFTGTGSGTDFTLKISRVEAEDLGVYYCFQGSHVPYTFGGGTKLEIK |  |  |  |  |  |  |  |  |  |  | 79% | 

Second part, led by results:

IC50 [12] | relative binding (amount bound to 500 pg/mL hGDF15 = 100) [2] | relative binding (amount bound to 500 pg/mL hGDF15 = 100) [3] | relative binding (amount bound to 500 pg/mL hGDF15 = 100) [4] | relative binding (amount bound to 500 pg/mL hGDF15 = 100) [5] | relative binding (amount bound to 500 pg/mL hGDF15 = 100) [6] | relative binding (amount bound to 500 pg/mL hGDF15 = 100) [7] | relative binding (amount bound to 500 pg/mL hGDF15 = 100) [8] | relative binding (amount bound to 500 pg/mL hGDF15 = 100) [9] | relative binding (amount bound to 500 pg/mL hGDF15 = 100) [10] | Inhibition % [13] | Molecule | also measured
11.1 nM |  |  |  |  |  |  |  |  |  |  | MAB957 (antibody) | relative binding (amount bound to 500 pg/mL hGDF15 = 100) (relative value (WT hGDF15 = 100)) [2]: 80.6; relative binding (amount bound to 500 pg/mL hGDF15 = 100) (relative value (WT hGDF15 = 100)) [3]: 88.3; relative binding (amount bound to 500 pg/mL hGDF15 = 100) (relative value (WT hGDF15 = 100)) [4]: 89.9; relative binding (amount bound to 500 pg/mL hGDF15 = 100) (relative value (WT hGDF15 = 100)) [5]: 84.1; relative binding (amount bound to 500 pg/mL hGDF15 = 100) (relative value (WT hGDF15 = 100)) [6]: 69.2; relative binding (amount bound to 500 pg/mL hGDF15 = 100) (relative value (WT hGDF15 = 100)) [7]: 74.3; relative binding (amount bound to 500 pg/mL hGDF15 = 100) (relative value (WT hGDF15 = 100)) [8]: 101; relative binding (amount bound to 500 pg/mL hGDF15 = 100) (relative value (WT hGDF15 = 100)) [9]: 99; relative binding (amount bound to 500 pg/mL hGDF15 = 100) (relative value (WT hGDF15 = 100)) [10]: 93.9; relative binding (amount bound to 500 pg/mL hGDF15 = 100) (relative value (WT hGDF15 = 100)) [11]: 100
12 nM | 83 relative value (WT hGDF15 = 100) | 87.7 relative value (WT hGDF15 = 100) | 97.2 relative value (WT hGDF15 = 100) | 95 relative value (WT hGDF15 = 100) | 78.8 relative value (WT hGDF15 = 100) | 83.9 relative value (WT hGDF15 = 100) | 104 relative value (WT hGDF15 = 100) | 110 relative value (WT hGDF15 = 100) | 101 relative value (WT hGDF15 = 100) | 0% | MAB17 (antibody, V domains shown, Mouse monoclonal antibody from hybridoma; also called clone MAB17) VH: QVTLKESGPGILQPSQTLSLTCSFSGFSLNTHGMGVGWIRQPSGKGLEWLANIWWNDDKYYNSALKSRLTLSKDTSNNQVFLKISSVDTADTATYFCAQVAWDWFAYWGQGTLVTIS VL: QIVLTQSPAIMSASLGEEITLTCSASSSVRYMHWYQQKSGTSPKVLIYSTSNLASGVPSRFSGSGSGTFYSLTISSVEAEDAADYYCHQWSSYPWTFGGGTKLEIKR | 
